Paper PMC4070925
Residue numbers refer to the chain shown, from its start.

B1: Bivalent Linker 5 (structured_DNA)
DNA: AGATGCCTGTCGAGCATGCTGGTTGGTGTGGTTGGAAGTAGGTGGTTCAAAGCAGTGAAGGGTACAGTCCGTGGTAGGGCAGGTTGGGGTGACTGTAGCTAAACTGCTTTGTCGACGGG
B2: Truncate III (structured_DNA)
DNA: GGTTGGTGTGGTTGGTTGGTTGGCGTTCAAAGCAGTCTTGGGCTAAGTCCGTGGTAGGGCAGGTTGGGGTGACT
B3: Truncate I (structured_DNA)
DNA: GGTTGGTGTGGTTGGTTGGTTGGCGTTCAAAGCAGTCTTGGGCTAAGTCCGTGGTAGGGCAGGTTGGGGTGACTGTAGCTAAACTGCTTTGTCGACGGG
B4: Bivalent Linker 6 (structured_DNA)
DNA: AGATGCCTGTCGAGCATGCTGGTTGGTGTGGTTGGCGGGGGCCCTCTATAGTTGCGTTCTGGATGAGTCCGTGGTAGGGCAGGTTGGGGTGACTGTAGCTAAACTGCTTTGTCGACGGG
B5: Truncate II (structured_DNA)
DNA: AGATGCCTGTCGAGCATGCTGGTTGGTGTGGTTGGTTGGTTGGCGTTCAAAGCAGTCTTGGGCTAAGTCCGTGGTAGGGCAGGTTGGGGTGACT
B6: Bivalent Linker 1 (structured_DNA)
DNA: AGATGCCTGTCGAGCATGCTGGTTGGTGTGGTTGGATTGGGGGGCAGAATGCCAGTTTAGCGTACAGTCCGTGGTAGGGCAGGTTGGGGTGACTGTAGCTAAACTGCTTTGTCGACGGG
B7: Bivalent Linker 4 (structured_DNA)
DNA: B6 DNA with A36G, G40T, C45A, G47T, T50A, G51A, C52G
B8: Bivalent Linker 2 (structured_DNA)
DNA: AGATGCCTGTCGAGCATGCTGGTTGGTGTGGTTGGTTGGTTGGCGTTCAAAGCAGTCTTGGGCTAAGTCCGTGGTAGGGCAGGTTGGGGTGACTGTAGCTAAACTGCTTTGTCGACGGG
B9: Bivalent Linker 3 (structured_DNA)
DNA: AGATGCCTGTCGAGCATGCTGGTTGGTGTGGTTGGGTAGGGGCCCAGCATGACAGTTTTTGCCAAAGTCCGTGGTAGGGCAGGTTGGGGTGACTGTAGCTAAACTGCTTTGTCGACGGG

These binders were tested against thrombin (UniProt P00734;P00734 315-363;364-622) (assay: plate binding assay (streptavidin-peroxidase); Thrombin-coated plate; 5'-biotin aptamer in HEPES buffer (full composition not in material) 1 h; washes 40 mM HEPES pH 7.5, 0.05% Tween-20; block 1 mg/ml BSA +).
B1 was tested, and the “apparent K (half saturation)” value was 1 nM.
B2 was tested, and the “apparent K (half saturation)” value was 0.5 nM.
For B3, the “apparent K (half saturation)” value was 1 nM.
B4 was tested, and the “apparent K (half saturation)” value was about 20 nM.
In the case of AGTCCGTGGTAGGGCAGGTTGGGGTGACT (structured_DNA) [Apt-29], the “apparent K (half saturation)” value is reported as 0.7 nM.
B5 was tested, and the “apparent K (half saturation)” value was 0.5 nM.
B6 was tested, and the “apparent K (half saturation)” value was 1.4 nM.
In the case of B7, the “apparent K (half saturation)” value is reported as 0.4 nM.
In the case of B8, the “apparent K (half saturation)” value is reported as 0.2 nM.
With B9 the “apparent K (half saturation)” value was 0.4 nM.
